# B1: FSR16m (designed binder)
# chain: MGMEQKLISEEDLDGYIPEAPRDGQAYVRKDGEWVLLSTFLGGGGSLQGGGGSLQGSDLGKKLLEAARAGQDDEVRILMANGADVNALDLFGVTPLHLAAERGHLEIVEVLLKNGADVNAGDAFGRTPLHLAALGGHLEIVEVLLKNGADVNACDLYGVTPLHLAAGLGHLEIVEVLLKNGADVNAQDKFGKTAFDISIDNGNEDLAEILQSSSKLAAALEHHHHHH
# Target: RBD protein of SARS-COV-1 (SARS-CoV-1, UniProt P59594 306-527)
# Assay: ELISA ('the same binding assay')
binder,measurement,value
B1,binding result,no binding
